Measurements as given in publication PMC3834820, “Structural insight into LexA–RecA* interaction” (Nucleic Acids Research, 2013).

Experiments:
LexA wt = LexA wt (UniProt P0A7C2 1-202); experiment: SPR; 150 nM LexA; LexA-operator SPR: 20 mM NaH2PO4 pH 7.3, 0.14 M NaCl, 0.005% P20, 25 C; RecA-SKBT25: 20 mM NaH2PO4 pH 7.3, 1 mM ATPgS, 2 mM MgCl2, 0.05 mM Ellman's reagent, on; settings: protein: recombinant; chain copies: 2; label: 3' TEG-biotin on S9; S7 pairs with the 3' 24 nt and S9 with the 5' 15 nt of S10; nick between S7 and S9; blunt
[1] = target: the molecule itself; experiment: cross-linking; intermolecular disulphide between Cys24 of two LexA(M24C) subunits on oxidation with 0.5 mM 1,10-phenanthroline and 0.1 mM CuSO4, 30 min, room temperature

B1: tisB operator SPR fragment (dsDNA)
DNA 1: GTTACTACTCGAGCGATTACTGTTTATTTATACAGTAAA
DNA 2: TTTACTGTATAAATAAACAGTAAT
DNA 3: CGCTCGAGTAGTAAC
B1: binds (LexA wt).

B2: LexA(M24C), oxidized (disulphide-locked dimer in the DNA-binding state) (natural protein, E. coli, UniProt P0A7C2 1-202, looked up)
chain: MKALTARQQEVFDLIRDHISQTGCPPTRAEIAQRLGFRSPNAAEEHLKALARKGVIEIVSGASRGIRLLQEEEEGLPLVGRVAAGEPLLAQQHIEGHYQVDPSLFKPNADFLLRVSGMSMKDIGIMDGDLLAVHKTQDVRNGQVVVARIDDEVTVKRLKKQGNKVELLPENSEFKPIVVDLRQQSFTIEGLAVGVIRNGDWL
modifications: intermolecular disulphide bond between the Cys24 residues of the two subunits
notes: LexA repressor, E. coli, single-cysteine mutant M24C; The reduced form (20 mM DTT) was also used in the cleavage assay but is not made a molecule here; also called oxidized LexA(M24C); source: overexpressed from plasmid pLexAM24C, purified (Ni-NTA); oxidized with 0.5 mM 1,10-phenanthroline and 0.1 mM CuSO4, 30 min, room temperature
B2: binds [1].
